Values joined by “and” are separate entries in the source; they are usually repeats but may differ in a detail not shown here. Identical values can stand only once.

Test [1] concerns the target T1, HA-GCN4 hAPRIL (amino acid residues 105-250) (human, UniProt O75888 105-250).
T1 construct: Bought (R&D Systems); also called HA-tagged GCN4 human APRIL; HA-GCN4-huAPRIL; not shown: N-terminal HA tag; GCN4 isoleucine zipper oligomerization domain
T1 sequence: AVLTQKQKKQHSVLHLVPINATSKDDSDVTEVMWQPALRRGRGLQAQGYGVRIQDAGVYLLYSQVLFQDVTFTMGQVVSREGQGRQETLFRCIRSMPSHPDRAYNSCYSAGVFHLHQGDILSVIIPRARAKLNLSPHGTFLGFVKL
Nature of the test: blocking ELISA, 4-parameter fit; blocked: human APRIL binding to human BCMA-Fc. How it is done: (§1) Recombinant TACI-Fc or BCMA-Fc was coated on 96 well plates in 0.1 M carbonate-bicarbonate buffer (pH 9.6), overnight at 4° C. Plates were washed three times with 1×PBST (PBS+0.025% Tween 20) followed by blocking with 1% BSA in 1×PBS, 37° C. for 1 hour. All subsequent wash steps were carried out with 1×PBST. To assess antibody blocking, either 15 ng/mL or 50 ng/mL HA-GCN4-huAPRIL was preincubated with varying antibody concentrations ranging from 0.03-30 μg/mL in binding buffer comprised of 1% BSA and 0.025% Tween-20 in 1×PBS. Preincubation was carried out at 30° C. for 1 hour with mixing. Antibody-APRIL premix with 50 ng/mL APRIL or 15 ng/mL APRIL was then added to TACI-Fc coated or BCMA-Fc coated plates, respectively, and incubated for an additional hour at 30° C. HA-tagged APRIL binding to either receptor was quantified using a goat polyclonal anti-HA tag-HRP antibody (Abcam) added at a 1:10000 dilution followed by colorimetric development using 100 μl/well of freshly prepared TMB substrate (KPL) carried out for up to 30 minutes at room temperature before quenching enzymatic reaction by the addition of 1N sulfuric acid. ELISA signal was quantified by absorbance at 450 nm. ELISA data was analyzed by non-linear regression. IC₅₀ values were calculated based on a 4 parameter fit of antibody titration curves. […] Non-blocking antibodies Aprly-1 or Aprly-5 (Enzo Biosciences) were used as negative controls. Mouse specific, blocking antibody aprily-1-1 (Adipogen) was generally used as a positive control in experiments using mouse APRIL (HA-GCN4-mAPRIL).
(ELISA stands for enzyme-linked immunosorbent assay.)

Test [2] concerns the target T1, HA-GCN4 hAPRIL (amino acid residues …). The test is described as follows: blocking ELISA; blocked: human APRIL binding to human TACI-Fc. The arrangement: concentration or dose not given beside the values. How it is done:
as §1

The target is the same in test [3]. Nature of the test: blocking ELISA; blocked: human APRIL binding to human BCMA-Fc. The arrangement: concentration or dose not given beside the values. How it is done: as §1
The target is the same in test [4]. The test is described as follows: indirect ELISA on HA-GCN4 human APRIL, 3-parameter fit. How it is done:
FIG. 5 depicts the binding of anti-APRIL antibodies to human APRIL. Relative binding of select anti-APRIL antibodies was measured by indirect ELISA. Select antibodies based on prior hybridoma screening were recombinantly produced (based on immunoglubin VH and VL gene sequencing) as described. HA-tagged GCN4 human APRIL R&D Systems was used as source of APRIL. Binding data was analyzed by non-linear regression using a three parameter fit.
Purified antibodies were further characterized for APRIL binding, APRIL species cross reactivity (human APRIL vs. mouse APRIL), and receptor blocking activity using TACI-Fc. For binding, an APRIL-based indirect ELISA was used to determine by first approximation the relative affinity of purified anti-APRIL antibodies to either human APRIL or mouse APRIL. ELISA method was as generally described above. […] Blocking and wash steps were completed as described. Binding of anti-APRIL antibodies to APRIL was quantified using an 8 point dilution of test antibody that spanned over a four log scale. Antibody binding to APRIL was detected using a rabbit anti-mouse IgG (H+L)-HRP conjugate (Jackson ImmunoResearch Laboratories). Antibody binding data was analyzed by non-linear regression analysis using a 3 parameter fit to determine max binding and apparent EC₅₀ values. […] Mouse specific antibody Apry-1-1 (Adipogen) was likewise used for quantification of antibody binding to mouse APRIL.

The target is the same in test [5]. The test is described as follows: blocking ELISA, 4-parameter fit; blocked: human APRIL binding to human TACI-Fc. The procedure:
as §1

For test [6] the target is unchanged. The test is described as follows: cell-based or functional assay.
The target is the same in test [7]. The test is described as follows: blocking ELISA; blocked: human APRIL binding to BCMA-Fc. Summed up: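 HA-GCN4-tagged human APRIL (15 ng/mL) preincubated 1 h at 30 °C with antibody (0.03–30 μg/mL), then added 1 h at 30 °C to plates coated with BCMA-Fc. Bound APRIL detected with anti-HA-HRP/TMB at 450 nm; IC₅₀ from 4-parameter fit of antibody titration curves.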

Test [8] has the same target. The test is described as follows: indirect ELISA on human APRIL; row printed 4504, legend paragraph 738 says 4540.
Test [9] concerns the target T2, HA-GCN4 mAPRIL (amino acid residues 96-241) (mouse, UniProt Q9D777 96-241, Assembles as a homotrimer through the GCN4 zipper; one protomer is given.).
T2 construct: Bought (R&D Systems); also called HA-tagged mouse APRIL (R&D Systems); recombinant mouse APRIL; not shown: N-terminal HA tag and GCN4 isoleucine-zipper trimerisation domain, with any linker, of the bought R&D Systems protein
T2 sequence: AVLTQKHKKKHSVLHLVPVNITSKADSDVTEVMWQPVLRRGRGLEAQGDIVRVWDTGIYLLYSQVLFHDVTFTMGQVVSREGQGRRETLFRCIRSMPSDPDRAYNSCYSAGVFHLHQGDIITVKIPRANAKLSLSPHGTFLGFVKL
The test is described as follows: blocking ELISA; blocked: mouse APRIL binding to human BCMA-Fc. The procedure: Recombinant TACI-Fc or BCMA-Fc was coated on 96 well plates in 0.1 M carbonate-bicarbonate buffer (pH 9.6), overnight at 4° C. Plates were washed three times with 1×PBST (PBS+0.025% Tween 20) followed by blocking with 1% BSA in 1×PBS, 37° C. for 1 hour. All subsequent wash steps were carried out with 1×PBST. To assess antibody blocking, either 15 ng/mL or 50 ng/mL HA-GCN4-huAPRIL was preincubated with varying antibody concentrations ranging from 0.03-30 μg/mL in binding buffer comprised of 1% BSA and 0.025% Tween-20 in 1×PBS. Preincubation was carried out at 30° C. for 1 hour with mixing. Antibody-APRIL premix with 50 ng/mL APRIL or 15 ng/mL APRIL was then added to TACI-Fc coated or BCMA-Fc coated plates, respectively, and incubated for an additional hour at 30° C. HA-tagged APRIL binding to either receptor was quantified using a goat polyclonal anti-HA tag-HRP antibody (Abcam) added at a 1:10000 dilution followed by colorimetric development using 100 μl/well of freshly prepared TMB substrate (KPL) carried out for up to 30 minutes at room temperature before quenching enzymatic reaction by the addition of 1N sulfuric acid. ELISA signal was quantified by absorbance at 450 nm. ELISA data was analyzed by non-linear regression. IC₅₀ values were calculated based on a 4 parameter fit of antibody titration curves. […]

B1: monoclonal antibody 2218 (antibody, mouse IgG2, V domains shown)
VH: DVQLQESGPGLVKPSQSLSLTCSVTGYSITSGYYWNWIRQFPGNKLEWMGYISYDGYNNYNPSLKNRISITRDTSKNQFFLKLNSVTTEDTATYYCANYYDYEDWYFGVWGTGTTVTVSS
VL: DIVLTQSPASLAMSLGKRATISCRASESVSIIGTNSIHWYQQKPGQPPKLLIYHASNLETGVPARFSGSGSRTDFTLTIDPVEEDDVAIYYCLQSRKIPYTFGGGTKLEIK
In general, IC50 refers to the concentration at which inhibition is half-maximal. Usually % Inhibition stands for the change of the read-out against control, counted positive when it falls. For orientation: EC50 means the concentration at which the effect is half-maximal. With B1, the half-inhibitory concentration (IC50) in test [1] was determined as 220 pM; in test [5], 740 pM. Further, the “% Inhibition” value in test [2] was 91%; in test [3] it was 100%. Also, in test [4], the EC50 was 0.0126 µg/mL and 0.085 nM.

B2: monoclonal antibody 4540 (antibody, V domains shown)
VH: QVQLQQSGPELVKPGASVKISCKASGYTFADYYINWVKQRPGQGLEWIGWIFPGSGSTYYNEKFKGKATLTVDKSSSTAYMLLSSLTSEDSAVYFCARGDSGRAMDYWGQGTSVTVSS
VL: DIQMTQSPSSLSASLGGKVTITCKASQDINKYIAWYQHKPGKGPRLLIHYTSTLQSGIPSRFSGSGSGRDYSFSISNLEPEDNATYYCLQYDNLLTFGAGTKLELK
notes: mouse-derived
For the molecule B2, in test [6], the “IC50 (inhibition of APRIL-mediated BCMA NFκB signaling)” value was about 810 pM and the “IC50 (inhibition of APRIL-mediated TACI NFκB signaling)” value is about 2250 pM. For the same molecule, in test [7], the IC50 turned out to be 670 pM and the “Relative Activity (normalised to 2419)” value worked out at 2.85. The half-maximal effective concentration (EC50) in test [8] came to 1.39 pM.

B3: monoclonal antibody 3530 (antibody, mouse IgG2, V domains shown)
VH: QVQLQQSGAELVRPGASVKLSCKASGYTFTDHEMHWVRQTPVHGLEWIGVIDPDTGDTTYNQKFKGKATLTADKSSSTAYMDLRSLTSEDSAVFYCTRWTGGDYWGHGTTLTVSS
VL: DAVMTQTPLSLSVTIGQPASISCKSSQSLLYSDGKTYLNWFQQRPGQSPKRLMYQVSKLDPGIPDRFSGSGSETDFTLKISRVEAEDLGVYYCLQGTYYPYTFGSGTKLEIK
Turning to B3, the values for the IC50 in [1] and in test [5] were 680 pM and 4950 pM, respectively. In addition, the “% Inhibition” value in test [2] stood at 81%; in test [3], 35%. For the same molecule, in test [9], the “IC50 (read off the curve)” value is about 0.3 µg/mL. Also, the EC50 in test [4] is 0.058 µg/mL and 0.392 nM.

(Values after patent US20170145086A1 (VISTERRA, published 2017).)
